Target: T1, Vitronectin from human plasma (SIGMA-ALDRICH) (human, UniProt P04004 20-478)
T1 construct: mature; Bought protein from human plasma. 'mature' is inferred from the plasma origin
Experiment: ELISA: plate coated with fusion protein (10 ug/ml), human plasma vitronectin titrated from 10 ug/ml, detected with peroxidase sheep anti-human vitronectin

T1 sequence (P04004 20-478): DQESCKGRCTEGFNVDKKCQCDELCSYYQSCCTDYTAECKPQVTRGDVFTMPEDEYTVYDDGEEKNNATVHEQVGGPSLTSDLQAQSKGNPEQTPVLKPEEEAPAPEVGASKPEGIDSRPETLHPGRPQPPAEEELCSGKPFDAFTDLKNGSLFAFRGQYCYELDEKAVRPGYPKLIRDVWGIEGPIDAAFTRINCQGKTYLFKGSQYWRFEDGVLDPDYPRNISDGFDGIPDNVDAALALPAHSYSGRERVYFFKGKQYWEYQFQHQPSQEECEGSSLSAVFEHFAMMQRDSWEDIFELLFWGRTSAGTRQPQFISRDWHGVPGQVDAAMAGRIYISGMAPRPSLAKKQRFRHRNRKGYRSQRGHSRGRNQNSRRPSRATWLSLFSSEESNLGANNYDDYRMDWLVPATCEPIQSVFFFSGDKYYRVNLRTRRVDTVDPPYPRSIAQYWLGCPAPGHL

B1: purified LVL317 PE-PilA fusion protein (other)
chain: QIQKAEQNDVKLAPPTDVRSGYIRLVKNVNYYIDSESIWVDNQEPQIVHFDAVVNLDKGLYVYPEPKRYARSVRQYKILNCANYHLTQVRTDFYDEFWGQGLRAAPKKQKKHTLSLTPDTTLYNAAQIICANYGEAFSVDKKGGTKKAAVSELLQASAPYKADVELCVYSTNETTNCTGGKNGIAADITTAKGYVKSVTTSNGAITVKGDGTLANMEYILQATGNAATGVTWTTTCKGTDASLFPANFCGSVTQ
notes: also called PE-PilA fusion non His-tagged protein
**Q.** Does B1 bind?
**A.** binds
